Tested on: MS2 coat protein
Assay: apparent KD of MS2 coat protein; designed switch direction (-1 OFF switch, 1 ON switch): -1; higher = weaker reporter binding
Procedure, shortened: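 The apparent KD reported per design is the median over clusters of curve fits to normalised cluster fluorescence. The RNA switches were transcribed on Illumina chips by stalled E. coli RNA polymerase. SNAP-549-labelled MS2 coat protein was titrated from 0.7 or 1.5 nM, doubling up to 3 µM, in Tris-HCl pH 7.5 buffer containing KCl, MgCl2, BSA, DTT, tRNA and Tween-20, with no input, 200 uM small-molecule ligand, or an oligonucleotide input.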

[1] = Eterna round: R95, input ligand: FMN 200 uM
[2] = Eterna round: R95, input ligand: microRNA oligo, concentration not stated
[3] = Eterna round: R95, input ligand: none
[4] = input ligand: microRNA oligo, concentration not stated

Sequence	apparent KD of MS2 coat protein (input ligand: FMN 200 uM) [nM]	apparent KD of MS2 coat protein (input ligand: none) [nM]	apparent KD of MS2 coat protein [1] [nM]	apparent KD of MS2 coat protein [2] [nM]	apparent KD of MS2 coat protein [3] [nM]	apparent KD of MS2 coat protein [4] [nM]
CGAUGACGAGUGAGGAUAUCGUGUUCGAAAGAACGUGAGAAGGCACAUGAGGAUCACCCAUGUGAUCCUCAUCG [Omei Ex4B A26] (Eterna round: R97, puzzle: Brourd's mod of Exclusion 4)	708	57.1	–	–	–	–
CGAUGUCUUCGGACAUCGAACAUGAGGAUCACCCAUGUAUAGAGCAGAUCUUCAUGCAAGCUUUUUGCUCGUCUUAU [Sensor v3 - turn-off variant 1 - 47] (puzzle: Sensor v3, turn-off variant 1)	–	–	84.7	14.6	90.4	–
CGCAACACAUGAGGAUCAAACAUGAGGAUCACCCAUGUAUAACAAGCUUUUUGCUCGUCUUAUAAAUAUGUGUUGCG [Electric Eye 2 - Jieux - Sensor, turn-off variant 1] (Eterna round: R97, puzzle: Sensor, turn-off variant 1)	16.9	9.13	–	–	–	–
CGCACGUAAGGAUAUACAUGAGGAUCACCCAUGUGUAAAUACUGCAACGUGGUGAAUAGUAGAAGGUACGAUGC [Eternabot (L2) Solution 56] (Eterna round: R97, puzzle: Exclusion 3)	55.5	18.3	–	–	–	–
CGCCCGGGAGGAUAUCCAAUAUAUGACAUGAGGAUCACCCAUGUUUCCACUCGUACCUCCGGAGAAGGCCCGGCGA [Ex5 #28] (Eterna round: R97, puzzle: Exclusion 5)	20.2	24.9	–	–	–	–
CGCGUUUAUGUAGGAUAUGCCUGGCGUGCCUUAGCAGAAGGACAUGAGGAUCACCCAUGUAACAUGAGGCUCACCCAUGUCGCA (Eterna round: R96, puzzle: Exclusion NG 1)	201	167	–	–	–	120
CGCUGGACAGGAUAUGUUCUUGGGCACUUGAGGAUCACCCAAGUCAUCGGGACAACAGGCACAGAAGGGUUUAUGG [salish99_ex5_r4_025] (Eterna round: R97, puzzle: Exclusion 5)	31.6	43.9	–	–	–	–
CGCUGGACAGGAUAUGUUCUUGGGCACUUGAGGAUCACCCAAGUCAUCGGGACAUCAGGCACAGAAGGGUCGUUGG [salish99_ex5_r4_029] (Eterna round: R97, puzzle: Exclusion 5)	22.2	25.6	–	–	–	–
CGCUGGUGAGGAUAUGGGUGUUUUUACAUGAGGAUCACCCAUGUGGAGUAGCAUGUGGGUCCAGAAGGCGCGAGUG [-24.2, -22.5 kcal, 21% A] (Eterna round: R97, puzzle: Exclusion 5)	398	309	–	–	–	–
CGGAAAUCCAAGGAUAUGCUAGACGAAAGUCUAGCAGAAGGUGGAACAUGAGGAUCACCCAUGUGUCCAAUCCG [Mat - Exclusion 6 - Eli Mod - D25] (Eterna round: R97, puzzle: Exclusion 6)	19.1	14.5	–	–	–	–
CGGAUGUAAGGAUAUUAGUAGUAGUCAGAAAAGACUAUUACUGAGAAGGUACAUGAGGAUCACCCAUGUUUCCG [Mat - Exclusion 4 - Eli Mod - D43] (Eterna round: R97, puzzle: Exclusion 4)	20.5	15.8	–	–	–	–
CGGAUGUUAGGAUAUUAGUAGUAGUCAGAAAAGACUAUUACUGAGAAGGAACAUGAGGAUCACCCAUGUAUCCG [Mat - Exclusion 4 - Eli Mod - D45] (Eterna round: R97, puzzle: Exclusion 4)	33.1	15.1	–	–	–	–
CGGCAAAGGUAGGAUAUGCUAGACGAUAGUCUAGCAGAAGGACCUACAUGAGGAUCACCCAUGUGUCCAAGCCG [Mat - Exclusion 6 - Eli Mod - D19] (Eterna round: R97, puzzle: Exclusion 6)	27.9	105	–	–	–	–
CGGCAACAUGUCAGGAUAUAUGUACCGCUGGGUGGAUAGAAGGGACAUGAGGAUCACCCAUGUCGUCCAGCCGG [Tisove] (puzzle: Brourd's mod of Exclusion 4)	–	–	19.4	12.6	13.9	–
CGGCAAUCCAAGGAUAUGCUAGACGAAAGUCUAGCAGAAGGUGGAACAUGAGGAUCACCCAUGUGUCCAAGCCG [Eli x6 4.04] (Eterna round: R97, puzzle: Exclusion 6)	21.1	15.3	–	–	–	–
CGGCAUGUAGAAGGAUAUCUGCACGAUUAGUGCAGAGAAGGUCUAACAUGAGGAUCACCCAUGUAGAUCAUUAACCGAUUAAUU [ENG1/8-A1] (Eterna round: R96, puzzle: Exclusion NG 1)	21.9	12	–	–	–	10.7
CGGCAUGUCUGAGGAUAUCUGCACGUGUAGUGCAGAGAAGGCAGAACAUGAGGAUCACCCAUGUAGAUCAUUAACCGAUUAAUU [ENG1/7-A3] (Eterna round: R96, puzzle: Exclusion NG 1)	201	184	–	–	–	162
CGGCGGGCAGGAUAUGGAAAUAAUAACAUGAGGAUCACCCAUGUAAAUAAAUGGGAAUAACCAGAAGGGCUUGUUG [-18.2, -17.7 kcal, A 37%] (Eterna round: R97, puzzle: Exclusion 5)	49.7	90.9	–	–	–	–
CGGGAGGGACAAGCUUUUUGCACGUCUGUUAUUGAUGCUACAUGAGGAUCACCCAUGUUUAAGAUGUGUGAGGAUGG [JR_SV3TOV2_Sub053] (puzzle: Sensor v3, turn-off variant 2)	–	–	26.2	57.6	31.3	–
CGGGCCGGCCUUCCGGCCGGCCCGACAUGAGGAUCACCCAUGUAGGAUAUCCCGGCUGCCGGCCGGGAGAAGGGCGUGCGUCCG [-50.4, -49.4 kcal, 14% A] (Eterna round: R96, puzzle: Exclusion NG 3)	151	137	–	–	–	87.8
CGGGCGCGAGGAUAUACAUGAGGAUCACCCAUGUAACGGCGAGCAAUGUUUGUUGCGUGUAGAAGGUGUGUUUG [-20.1, -18.7 kcal, A 27%] (Eterna round: R97, puzzle: Exclusion 3)	112	155	–	–	–	–
CGGUACUGAGGAUAUACAUGAGGAUCACCCAUGUGUUCCAGCUAGCGUACUGGCAUUAGUAGAAGGCGGUGCUG [JL-ex3-3.17 Brourd mod] (puzzle: Exclusion 3)	–	–	31.4	12.8	14.3	–
CGGUACUGAGGAUAUACAUGAGGAUCACCCAUGUGUUCUAGCUAGCGUACUGGCAUUAGUAGAAGGCGGUGCUG [JL-ex3-3.18 Brourd mod] (puzzle: Exclusion 3)	–	–	28.9	15.4	17.2	–
CGUAGCAAAGUGAGGAUAUCUAGAGCGAUAGCUCUAGAGAAGGCACAUGAGGAUCACCCAUGUGGUCAGCUACG [BmEx4/8-A4] (Eterna round: R97, puzzle: Brourd's mod of Exclusion 4)	393	82.4	–	–	–	–
